Our source for the Kd and IC50 values is the Immune Epitope Database (IEDB).

Assay [1] deals with HLA-B*57:01. The assay is described as follows: IEDB peptide-MHC binding, purified MHC/competitive/radioactivity; filed as Kd, often an IC50 or EC50 that approximates it; ≥ and ≤ were set here for values at or beyond the usual limits of such assays.
Assay [2] has as its target HLA-B*58:01. The assay is described as above.
Assay [3] deals with HLA-B*53:01. The description is as above.
Assay [4] has as its target HLA-A*24:02. The description is as above. As to conditions: source organism: Dengue virus 2 Jamaica/1409/1983.
Assay [5] addresses HLA-B*35:01. The assay is described as above.
For assay [6], the target named is HLA-B*08:01. The assay can be described thus: IEDB peptide-MHC binding, purified MHC/competitive/fluorescence; ≥ and ≤ were set here for values at or beyond the usual limits of such assays.
The target of assay [7] is HLA-A*32:01. The assay is described as follows: IEDB peptide-MHC binding, purified MHC/competitive/radioactivity; filed as Kd, often an IC50 or EC50 that approximates it; ≥ and ≤ were set here for values at or beyond the usual limits of such assays.
For assay [8], the target named is HLA-A*02:01. The assay is described as follows: IEDB peptide-MHC binding, purified MHC/competitive/fluorescence; ≥ and ≤ were set here for values at or beyond the usual limits of such assays.
Assay [9] deals with HLA-A*01:01. Described as above.
Assay [10] concerns the target HLA-A*24:02. The description is as above.
Assay [11] addresses HLA-B*15:01. The description is as above.
Assay [12] deals with HLA-A*29:02. The assay is described as follows: IEDB peptide-MHC binding, purified MHC/competitive/fluorescence; filed as Kd, often an IC50 or EC50 that approximates it; ≥ and ≤ were set here for values at or beyond the usual limits of such assays.
Assay [13] addresses HLA-A*02:01. Described as above. As to conditions: source organism: Francisella tularensis subsp. holarctica OSU18.
Assay [14] deals with HLA-A*02:12. The description is as above. As to conditions: source organism: Francisella tularensis subsp. holarctica OSU18.
Assay [15] has as its target HLA-B*51:01. The assay can be described thus: IEDB peptide-MHC binding, purified MHC/direct/fluorescence; filed as Kd, often an IC50 or EC50 that approximates it; ≥ and ≤ were set here for values at or beyond the usual limits of such assays.
In assay [16] the target is HLA-B*15:01. The assay can be described thus: IEDB peptide-MHC binding, purified MHC/competitive/fluorescence; filed as Kd, often an IC50 or EC50 that approximates it; ≥ and ≤ were set here for values at or beyond the usual limits of such assays.
Assay [17] concerns the target HLA-B*40:01. Described as above.
The target in assay [18] is HLA-B*46:01. The assay is described as follows: IEDB peptide-MHC binding, purified MHC/direct/fluorescence; filed as Kd, often an IC50 or EC50 that approximates it; ≥ and ≤ were set here for values at or beyond the usual limits of such assays. As to conditions: source organism: Escherichia coli O157:H7.
For assay [19], the target named is HLA-B*44:02. The assay is described as above. As to conditions: source organism: Escherichia coli O157:H7.
Assay [20] addresses HLA-B*58:01. The description is as above. As to conditions: source organism: Escherichia coli O157:H7.
Assay [21] addresses HLA-A*11:01. The description is as above. As to conditions: source organism: Escherichia coli O157:H7.
Assay [22] addresses HLA-A*01:01. The description is as above. As to conditions: source organism: Escherichia coli O157:H7.
The target in assay [23] is HLA-A*29:02. Described as above. As to conditions: source organism: Escherichia coli O157:H7.
Assay [24] has as its target HLA-A*03:01. Described as above. As to conditions: source organism: Escherichia coli O157:H7.
Assay [25] has as its target HLA-B*18:01. The description is as above. As to conditions: source organism: Escherichia coli O157:H7.
Assay [26] deals with HLA-B*57:01. Described as above. As to conditions: source organism: Escherichia coli O157:H7.
Assay [27] deals with HLA-B*40:01. Described as above. As to conditions: source organism: Escherichia coli O157:H7.
Assay [28] concerns the target HLA-A*69:01. The assay is described as above. As to conditions: source organism: Escherichia coli O157:H7.
Assay [29] has as its target HLA-B*27:05. The description is as above. As to conditions: source organism: Escherichia coli O157:H7.
In assay [30] the target is HLA-B*48:01. The description is as above. As to conditions: source organism: Escherichia coli O157:H7.
In assay [31] the target is HLA-B*07:02. The assay can be described thus: IEDB peptide-MHC binding, purified MHC/competitive/fluorescence; filed as Kd, often an IC50 or EC50 that approximates it; ≥ and ≤ were set here for values at or beyond the usual limits of such assays.
The target in assay [32] is HLA-B*07:02. The assay can be described thus: IEDB peptide-MHC binding, purified MHC/competitive/fluorescence; ≥ and ≤ were set here for values at or beyond the usual limits of such assays.
Assay [33] concerns the target HLA-B*35:01. The assay is described as follows: IEDB peptide-MHC binding, purified MHC/competitive/fluorescence; filed as Kd, often an IC50 or EC50 that approximates it; ≥ and ≤ were set here for values at or beyond the usual limits of such assays. As to conditions: source organism: Bacillus anthracis str. A2012.
The target of assay [34] is HLA-B*51:01. The description is as above. As to conditions: source organism: Bacillus anthracis str. A2012.
The mark [35] stands for this setting: source organism: Dengue virus 2 Jamaica/1409/1983.
Setting [36] is: source organism: Zaire ebolavirus.
Setting [37] is: source organism: Vaccinia virus WR.
The mark [38] stands for this setting: source organism: Bacillus anthracis str. A2012.
The mark [39] stands for this setting: source organism: Dengue virus 4 Philippines/H241/1956.
The mark [40] stands for this setting: source organism: Dengue virus 3 Martinique/1243/1999.
Where [41] appears, read: source organism: Escherichia coli O157:H7 str. EDL933.
Where [42] appears, read: source organism: Dengue virus 1 Brazil/97-11/1997.
Setting [43] is: source organism: Sudan ebolavirus.
Where [44] appears, read: source organism: Yersinia pestis CO92.

For the sequence KTRTNDWDF, in assay [1] (source organism: Dengue virus 2 Peru/IQT2913/1996), the Kd worked out at 6.54 nM.
Take IAASIILEF: the Kd in [2] (setting [35]) was found to be 7.03 nM; in assay [3] (setting [35]), 26.1 nM; in assay [4], 475 nM; in assay [5] (setting [35]) it was 22 nM.
Turning to YRHILRSQG, in [6] (setting [36]), the IC50 is ≥ 171000 nM.
For KMDNGTLEF, the Kd in assay [7] (setting [37]) worked out at 0.923 nM. Besides, the IC50 in assay [8] (setting [37]) turned out to be 6360 nM; in assay [9] (setting [37]), 15000 nM; in assay [10] (setting [37]), 1060 nM; in [11] (setting [37]), 24400 nM.
LWNPYEWYQ showed a Kd in assay [12] (setting [38]) of 520 nM.
Consider IAVSTANIF, for which the Kd in [5] (setting [39]) turned out to be 151 nM; in [1] (setting [39]) it was 407 nM.
In the case of FEVKKRDGV, the IC50 in assay [6] (setting [36]) is ≥ 158000 nM.
In the case of TVEGIGHHY, the Kd in assay [12] (source organism: Shigella sonnei Ss046) amounted to 36 nM.
On to SVYSWAIML, for which the values for the Kd in [13] and in assay [14] were 17.5 nM and 2320 nM, respectively.
Turning to KTSIGLICVI, the Kd in [1] (setting [40]) is 213 nM.
Turning to SPGRKNGSF, the Kd in assay [15] (source organism: Yellow fever virus 1899/81) was ≥ 20000 nM.
Consider SLFLPKLVV, for which the results for the IC50 in assay [8] (setting [36]), in assay [10] (setting [36]) and in [6] (setting [36]) were 200 nM, 45400 nM and ≥ 293000 nM, respectively.
Take FERGVINVF: the dissociation constant (Kd) in assay [16] (setting [41]) stood at 265 nM; in [17] (setting [41]), 3210 nM.
As for MLKLRQARL, the Kd in assay [18], in assay [19], in [20], in [21], in assay [22] and in assay [23] was ≥ 20000 nM throughout. Further, the Kd in [24], in assay [25], in assay [26], in [27], in assay [28] and in assay [29] was ≥ 20000 nM in each case. Further, the Kd in assay [30] was ≥ 20000 nM.
With LPFERATV, the Kd in [31] (source organism: Influenza A virus (A/swine/Italy/2/1979(H1N1))) stood at 10.5 nM.
On to HPGFTILAL, for which the figures for the Kd in assay [15] (source organism: dengue virus type 3) and in [3] (setting [40]) were ≥ 20000 nM and 0.3 nM, respectively.
LPWTKISET: the IC50 in assay [8] (setting [37]) was ≥ 405000 nM; in [32] (setting [37]), ≥ 81600 nM; in assay [10] (setting [37]), 66700 nM; in assay [6] (setting [37]), ≥ 86800 nM.
On to MPLKKQILF, for which the Kd was 279 nM in assay [31] (setting [38]), ≤ 0.1 nM in assay [33] and 130 nM in assay [34].
For MNHKNKFMA, the IC50 was ≥ 143000 nM in [8] (setting [36]) and 19900 nM in [6] (setting [36]).
As for SVGHMMVIF, the IC50 was 18600 nM in assay [8] (setting [36]), ≥ 277000 nM in [32] (setting [36]), 2410 nM in assay [10] (setting [36]) and 10500 nM in [11] (setting [36]).
On to YETLVGLAI, for which the Kd in assay [17] (source organism: Salmonella enterica subsp. enterica serovar Typhi) worked out at 4 nM.
Take WMSSEGAWKQ: the Kd in assay [2] (setting [42]) came to 7760 nM.
As to VPKLLLWFN, the IC50 was ≥ 810000 nM in [32] (source organism: Variola virus) and 9710 nM in assay [10] (source organism: Variola virus).
Turning to ASSGMLWMAE, the Kd in [2] (setting [40]) is 2270 nM; in assay [1] (setting [40]), ≥ 29300 nM.
In [9] (setting [43]), HKDGAFFLY registered a 50% inhibitory concentration (IC50) of 6350 nM. That is a single-digit micromolar value.
Take AAVEDEDFW: the Kd in assay [2] (setting [40]) was 112 nM; in assay [3] (setting [40]) it was 334 nM; in [1] (setting [40]), 1110 nM.
On to RVWIEDNPW, for which the results for the Kd in assay [2] (setting [40]), in assay [7] (setting [40]) and in [1] (setting [40]) were 2.11 nM, 71.9 nM and 49.6 nM, respectively.
Regarding TLDGQQFYW, the IC50 in [8] (setting [36]) is 2220 nM; in assay [9] (setting [36]), 35300 nM; in assay [10] (setting [36]), 182 nM.
Regarding MSSEGAWKQI, the Kd is 786 nM in assay [2] (setting [42]) and 231 nM in assay [1] (setting [42]).
For the sequence RLDRPHTPQ, the IC50 in [8] (setting [43]) is ≥ 88500 nM; in assay [32] (setting [43]), 28500 nM.
In the case of GELIFSHNL, the Kd in [16] (setting [44]) came out at 3150 nM; in [17] (setting [44]), 7 nM.
FSTSDGKEY: the IC50 in assay [9] (setting [36]) is 14300 nM; in assay [11] (setting [36]) it was 11600 nM.

Broadly, the Kd is the free concentration of one partner at which half of the binding sites on the other are occupied at equilibrium, for simple one-to-one binding. In general, IC50 refers to the point on the concentration scale where inhibition reaches its midpoint. Low readings indicate greater potency, high ones weaker potency.
